# According to patent WO2015031626A1 (dated 2015):
# B1: anti-cMet 224D10 F(ab')2 fragment antibody (antibody, V domains shown)
# VH: DLQLQESGPGLVKPSQSLSLTCSVTGYSITSAYFWSWIRQFPGNKLEWMGFINYDGTNNYNPSLKNRISITRDTSKNQFFLRLNSVTTDDTATYYCTRDRTFAYWGQGTLVTVSA
# VL: DIVLTQSPATLSVTPGDRVSLSCRASQRIYNYLHWYQQKSHESPRLLIKYASQSISGIPSRFSGSGSGTDFILTINSVETEDFGMYFCQQSNSWPLTFGAGTKLELRR
# modifications: acridinium conjugate (site not stated)
# notes: also called 224D10 F(ab') 2 fragment conjugate
# B2: anti-cMet 11E1 monoclonal antibody (hybridoma CNCM I-3724) (antibody, V domains shown)
# VH: QVQLQQSGAELAKPGASVKMSCKASGYTFTSYWMNWVKQRPGQGLEWIGYINPTTGSTDYNQKLKDKATLTADKSSNTAYMQLSSLTSEDSAVYYCAIGGYGSWFAYWGQGTLVTVSA
# VL: QIVLTQSPAIMSASPGEKVTLTCSASSSVSSTYLYWYQQKPGSSPKLWIYTTSILASGVPARFSGSGSGTSYSLTISSMETEDAASYFCHQWSSYPFTFGSGTKLDIK
# notes: summary and claims call them variable heavy and variable light domains; Hybridoma monoclonal, coated on magnetic microparticles (capture) or labelled with acridinium (conjugate); also called m11E1; mAb 11E1
# Key:
# [1] = biological target: T1, recombinant human scMet antigen, cMet (25-932)-HIEGRMD-6His (human, UniProt P08581 25-932); assay: … scMet B sandwich immunoassay, 224D10 F(ab')2 as acridinium conjugate
# T1 construct: this entry is used for those rows too; also called soluble cMet; scMet B Sample
# [2] = biological target: T1, recombinant human scMet antigen, cMet …; assay: … chemiluminescent microparticle sandwich immunoassay on recombinant scMet
# [3] = biological target: T2, free cMet (SEQ ID NO: 33) bound to Alexa-488 dye (human, UniProt P08581 25-932, Alexa-488 dye (site not stated)); assay: FRET binding titration in solution
# T2 construct: also called cMet-A488
# T2 sequence (P08581 other isoform, or with tags, fused parts or gaps limits assumed): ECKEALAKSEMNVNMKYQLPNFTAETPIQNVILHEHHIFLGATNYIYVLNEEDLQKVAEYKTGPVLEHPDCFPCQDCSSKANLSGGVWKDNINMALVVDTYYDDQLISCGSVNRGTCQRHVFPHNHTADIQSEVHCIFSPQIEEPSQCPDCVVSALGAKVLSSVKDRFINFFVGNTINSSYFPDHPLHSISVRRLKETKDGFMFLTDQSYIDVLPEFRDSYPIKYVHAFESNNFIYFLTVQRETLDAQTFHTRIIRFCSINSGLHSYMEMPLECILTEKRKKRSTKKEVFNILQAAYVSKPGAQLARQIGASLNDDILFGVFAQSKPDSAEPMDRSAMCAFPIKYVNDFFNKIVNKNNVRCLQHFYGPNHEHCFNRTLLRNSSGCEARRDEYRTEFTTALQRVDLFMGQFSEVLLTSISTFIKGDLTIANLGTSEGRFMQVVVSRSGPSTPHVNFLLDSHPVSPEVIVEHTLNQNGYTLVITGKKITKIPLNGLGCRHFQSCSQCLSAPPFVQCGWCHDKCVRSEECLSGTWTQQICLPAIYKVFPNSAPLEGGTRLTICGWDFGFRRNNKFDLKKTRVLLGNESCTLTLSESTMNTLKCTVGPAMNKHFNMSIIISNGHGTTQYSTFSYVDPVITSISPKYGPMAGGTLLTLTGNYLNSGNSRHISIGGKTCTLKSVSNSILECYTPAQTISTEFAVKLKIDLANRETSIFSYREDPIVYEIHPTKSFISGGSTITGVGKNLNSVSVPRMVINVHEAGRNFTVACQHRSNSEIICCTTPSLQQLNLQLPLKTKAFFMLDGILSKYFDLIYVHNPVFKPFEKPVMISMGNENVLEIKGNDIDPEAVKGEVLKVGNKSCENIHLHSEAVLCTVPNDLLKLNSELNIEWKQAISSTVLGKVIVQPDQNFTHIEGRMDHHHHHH
# T1 sequence (P08581 other isoform, or with tags, fused parts or gaps limits assumed): as above
Binder,binding result [1],binding result [2],binding result [3]
B1,binds,–,–
B2,–,binds,binds
